Measured values reported in patent US12428627B2, “Mutant p-hydroxyphenylpyruvate dioxygenase, and coding nucleic acid and use thereof” (Qingdao Kingagroot Chemical Compound Co., Ltd., priority 2018, dated 2025).

Assays:
OsHPPD = experiment: HPPD enzyme activity assay: Km, Kcat and Kcat/Km of OsHPPDs; assay type: biochemical, Oryza sativa; details: substrate 4-HPP
Procedure: The rice OsHPPD protein and homogentisate 1,2-dioxygenase (HGD) were obtained by heterologously expressed in E. coli wherein the gene was inserted into the pET 15b expression vector and expressed in the BL21 (DE3) expression strain, and purified by the Ni-NTA resin. • (1) The HPPD open reading frame (ORF) of the positive clone was cloned into the pET-15b vector to form a 6His-HPPD expression vector, and transformed into the BL21 (DE3) cell. The expression strain was inoculated in 10 mL of 2×YT culture medium, and cultivated overnight on a shaker at 37° C. and 200 rpm. The 10 mL of the culture was inoculated in 1 L of 2×YT culture medium and cultivated until the OD600 reached 0.6-0.8, cooled to a temperature of 16° C., and subjected to induced-expression with 0.2 mM IPTG (isopropyl thiogalactoside) overnight. The strains were collected by centrifugation at 2800×g. • (2) The collected strains were re-suspended with the buffer A (50 mM Tris pH 8.0, 500 mM NaCl, 20 mM imidazole), to which PMSF (phenylmethanesulfonyl fluoride) at the final concentration of 1 mM and 250 μL of a protease inhibitor cocktail (i.e., a mixture of multiple protease inhibitors), and mixed. The cells were broken by ultrasound in ice-bath (40% total power, work for 3 seconds/6 seconds interval, 2×30 minutes (Ningbo Scientz Biotechnology Co., Ltd., Ningbo, China)), and centrifuged at 12000 rpm at 4° C. for 30 minutes; and the supernatant was filtered with a 0.22 μm filter membrane. • (3) Purification with the Ni-NTA column: the supernatant was in contact with the Ni-NTA resin, then rinsed with a buffer A containing 50 mM imidazole to remove the impurities, and finally, eluted with an elution buffer containing 400 mM imidazole. • (4) The approximate purity of the protein of interest was analyzed by SDS-PAGE. The eluates containing of the protein of interest were combined and concentrated by an ultrafiltration device (10 kDa molecular weight cut-off, Amicon Ultra). The solution was replaced with a solution containing 20 mM Tris-HCl and having a pH of 7.5 for at least 3 times to desalt. The total protein concentration was determined by the BCA method.
(§1) • 1. The activity of a HPPD enzyme was determined by detecting the conversion of 4-hydroxyphenylpyruvate (4-HPP) to homogentisic acid (HGA) catalyzed by the HPPD enzyme and the conversion of HGA to maleylacetoacetate (MAA) catalyzed by homogentisate dioxygenase. […] 6 μl of 4-hydroxyphenylpyruvate (4-HPP) having a concentration that was as 50 times as the final concentration of the substrate were added to an ELSA plate, and then 294 μL of hydroxyethylpiperazine ethanesulfonic acid (HEPES) with a final concentration of 25 mM and pH of 7, 2 mM of Vitamin C, 10 mM FeSO4, 50 nM homogentisate dioxygenase and 5 to 240 nM HPPD enzyme were added thereto at one time. The final concentration of reaction substrate 4-HPP usually ranged from 1 to 100 μM. • 3. The absorbance changes of the reaction wells at 318 nm were continuously monitored by a UV ELISA detector (ReadMax 1900 photoabsorption type full-wavelength microplate reader) (Shanghai). • 4. Determination of Km, Kcat and Kcat/Km of OsHPPDs
Vmax is the maximum catalytic reaction rate achievable by enzymatic catalysis. The Michaelis constant Km is the concentration of a substrate required when the enzyme catalyzed the reaction to achieve half of the maximum rate (Vmax). The Km value is a constant and independent of the enzyme concentration, and altered as substrate type, reaction temperature, pH, and ionic strength changed. […] is a catalytic constant of an enzyme and referred to the number of substrate molecules that could be catalyzed by an enzyme molecule or enzyme active center per second. KCat/Km represents the catalytic efficiency of enzyme. It could be seen from the data in the table that the catalytic efficiency of most HPPD mutants was enhanced.

rice HPPD (OsHPPD) = experiment: Color reaction of recombinant E. coli expressing wild-type or mutant rice HPPD, cultured in 96-well plate in medium containing an HPPD-inhibiting herbicide and tyrosine; assay type: cell-based, Oryza sativa; set-up: key to relative resistance to Tembotrione / relative resistance to Benzuofucaotong metabolic product / relative resistance to Huanbifucaotong / relative resistance to Topramezone / relative resistance to Mesotrione / resistance to Tembotrione / resistance to Benzucfucaotong metabolic product / resistance to Huanbifucaotong / resistance to Topramezone / resistance to Mesotrione: The more the plus sign “+”, the deeper the color and the higher the resistance/tolerance as compared to the wild type; details: for resistance ranking in color reaction: compound 101
Description: The rice full-length OsHPPD enzyme has 446 amino acids and its amino acid sequence is set forth in SEQ ID NO: 2, wherein the amino acids 1-50 are considered to constitute a signal peptide which is responsible for directing into chloroplast (Siehl et al. Plant Physiol. 2014 November; 166(3): 1162-1176). Therefore, from the amino acid at the 51-position to the amino acid at the […], a saturated random mutation was made for each amino acid. This was achieved by performing a bridge PCR by using a primer containing a coding sequence of an amino acid to be mutated into NNK and another suitable conventional primer. In NNK, N represented A/T/G/C and K represented G/T, and the NNK codon could encode any one of 20 amino acids or terminators. Accordingly, this was a saturated mutation. Please see: Kille S. Acevedo-Rocha C G, Parra L P, Zhang Z G, Opperman D J, Reetz M T, Acevedo J P (2013) Reducing codon redundancy and screening effort of combinatorial protein libraries created by saturation mutagenesis. ACS Synth Biol 2(2):83-92; Directed Evolution Library Creation: methods and protocols 2nd ed. Edited by Elizabeth M. J. Gillam, Janine N. Copp and David F. Ackerley New York, NY United States: Springer, 2014. doi:10.1007/978-1-4939-1053-3. A large number of mutants would be produced. The mutant was cloned into a linearized pET-44a vector and transformed into E. co/i, which was cultivated by using a 96-well plate in a 2×YT culture solution containing an HPPD-inhibiting herbicide (such as 1-2 μM tembotrione) and a substrate tyrosine (1 g/L) in a shaker at 28° C. and 150 rpm for 24 hours for expression, and then the mutants were rapidly screened out according to their color browning. By using the method, 10 single amino acid mutants, A103S, H141R, H141 K, H141T, A165V, V191I, R220K, G342D, D370N and K410I, were screened out. The color reaction of these resistant mutants in the presence of tembotrione and the metabolic product of benzuofucaotong relative to that of the wild type was as shown in FIG. 1.
Similarly, the color reaction of these mutants in the presence of the other three HPPD-inhibiting herbicides huanbifucaotong, topramezone and mesotrione were determined, see FIGS. 2 and 3. The resistance/tolerance of each of the mutants to the five herbicides was roughly estimated on the basis of color changes thereof and the results were shown in Table 1. The more the plus sign “+”, the deeper the color and the higher the resistance/tolerance as compared to the wild type.
HPPD-inhibiting herbicides inhibited HPPD enzymatic activity. When tyrosine was converted to 4-hydroxyphenylpyruvate (HPP) under the action of tyrosine transaminase, the inactivated HPPD was unable to oxidize 4-hydroxyphenylpyruvate into homogentisic acid (HGA). HGA was dark brown. Therefore, if an HPPD mutant was resistant to or tolerant to an herbicide, after expressed in E. coli, the mutant could also oxidize 4-hydroxyphenylpyruvate into homogentisic acid, whereby dark brown appeared. Therefore, E. coli was cultured in a 2×YT culture medium containing a HPPD-inhibiting herbicide and a substrate tyrosine using a 96-well plate to express HPPD, and these mutants were rapidly screened according to their color changes. • (1) Preparation of 2×YT culture medium (1 g/L L-Tyr, 0.1 mM IPTG, 0.01 mM MnCl2 and 100 mg/L ampicillin were added). • (2) 0.1 mL of the above medium was added to each well of a 96-well plate, and the expression clones of OsHPPD wild type or mutant (OsHPPD Mut) from the E. coli plate obtained by the above transformation were subjected to liquid culture in the 96-well plate. HPPD inhibitors having a final concentration of 1 μM-20 μM were added according to different selected agents, for example, the final concentration of tembotrione was 1.7 μM while mesotrione was 10 μM. […]

OsHPPD proteins = experiment: Inhibitory activity (IC50) of the herbicide 101 and huanbifucaotong against OsHPPD proteins; assay type: biochemical, Oryza sativa; details: for resistance in in vitro enzyme activity experiments: herbicides 101 and huanbifucaotong
Procedure: as §1
• 5. Determination of inhibitory activity (IC50) of the herbicide 101 and huanbifucaotong against OsHPPD proteins
Due to the unique properties of each of 101 and huangbifucaotong, the degree of the increased IC50 value is not completely consistent for the two HPPD herbicides.

[1] = Table 1, single-site mutants, estimated from color change, wild type = +
[2] = Table 3, single-site and multi-site mutants, different time and plates, estimated from color shades

| Molecule | Km (OsHPPD) | resistance ranking in color reaction (rice HPPD (OsHPPD)) | resistance in in vitro enzyme activity experiments (OsHPPD proteins) | relative resistance to Benzuofucaotong metabolic product (rice HPPD (OsHPPD); [1]) | relative resistance to Huanbifucaotong (rice HPPD (OsHPPD); [1]) | relative resistance to Mesotrione (rice HPPD (OsHPPD); [1]) | relative resistance to Tembotrione (rice HPPD (OsHPPD); [1]) | relative resistance to Topramezone (rice HPPD (OsHPPD); [1]) | resistance to Benzucfucaotong metabolic product (rice HPPD (OsHPPD); [2]) | resistance to Huanbifucaotong (rice HPPD (OsHPPD); [2]) | resistance to Mesotrione (rice HPPD (OsHPPD); [2]) | resistance to Tembotrione (rice HPPD (OsHPPD); [2]) | resistance to Topramezone (rice HPPD (OsHPPD); [2]) | concentration of compound 101 at which activity is completely inhibited (OsHPPD proteins; FIG. 10 inhibition curve) |
| --- | --- | --- | --- | --- | --- | --- | --- | --- | --- | --- | --- | --- | --- | --- |
| N338D/G342D/R346H: mutant rice HPPD (protein, listed as Oryza sativa, The amino acid sequence of Wild-Type rice HPPD protein (OsHPPD _WT)) MPPTPTPTATTGAVSAAAAAGENAGFRLVGHRRFVRANPRSDRFQALAFHHVELWCADAASAAGRFAFALGAPLAARSDLSTGNSAHASLLLRSASVAFLFTAPYGGDHGVGADAATTASIPSFSPGAARRFAADHGLAVHAVALRVADAADAFRASVAAGARPAFQPADLGGGFGLAEVELYGDVVLRFVSHPDGADAPFLPGFEGVSNPGAVDYGLRRFDHVVGNVPELAPVAAYISGFTGFHEFAEFTAEDVGTAESGLNSVVLANNAETVLLPLNEPVHGTKRRSQIQTYLDHHGGPGVQHIALASDDVLGTLREMRARSAMGGFEFLAPPPPDYYDDVRRHAGDVLSEEQINECQELGVLVDRDDQGVLLQIFTKPVGDRPTFFLEMIQRIGCMEKDESGQEYQKGGCGGFGKGNFSELFKSIEEYEKSLEAKQAPTVQGS | 6.3 µM | highest resistance | good resistance | – | – | – | – | – | – | – | – | – | – | – |
| H141R/N338D/G342D/K418P: mutant rice HPPD (protein) MPPTPTPTATTGAVSAAAAAGENAGFRLVGHRRFVRANPRSDRFQALAFHHVELWCADAASAAGRFAFALGAPLAARSDLSTGNSAHASLLLRSASVAFLFTAPYGGDHGVGADAATTASIPSFSPGAARRFAADHGLAVRAVALRVADAADAFRASVAAGARPAFQPADLGGGFGLAEVELYGDVVLRFVSHPDGADAPFLPGFEGVSNPGAVDYGLRRFDHVVGNVPELAPVAAYISGFTGFHEFAEFTAEDVGTAESGLNSVVLANNAETVLLPLNEPVHGTKRRSQIQTYLDHHGGPGVQHIALASDDVLGTLREMRARSAMGGFEFLAPPPPDYYDDVRRRAGDVLSEEQINECQELGVLVDRDDQGVLLQIFTKPVGDRPTFFLEMIQRIGCMEKDESGQEYQKGGCGGFGPGNFSELFKSIEEYEKSLEAKQAPTVQGS | 18.8 µM | strongest resistance | higher resistance | – | – | – | – | – | – | – | – | – | – | – |
| WT: wild-type rice p-hydroxyphenylpyruvate dioxygenase (OsHPPD), SEQ ID NO: 2 (protein, listed as Oryza sativa, The amino acid sequence of Wild-Type rice HPPD protein (OsHPPD _WT)) MPPTPTPTATTGAVSAAAAAGENAGFRLVGHRRFVRANPRSDRFQALAFHHVELWCADAASAAGRFAFALGAPLAARSDLSTGNSAHASLLLRSASVAFLFTAPYGGDHGVGADAATTASIPSFSPGAARRFAADHGLAVHAVALRVADAADAFRASVAAGARPAFQPADLGGGFGLAEVELYGDVVLRFVSHPDGADAPFLPGFEGVSNPGAVDYGLRRFDHVVGNVPELAPVAAYISGFTGFHEFAEFTAEDVGTAESGLNSVVLANNAETVLLPLNEPVHGTKRRSQIQTYLDHHGGPGVQHIALASDDVLGTLREMRARSAMGGFEFLAPPPPNYYDGVRRRAGDVLSEEQINECQELGVLVDRDDQGVLLQIFTKPVGDRPTFFLEMIQRIGCMEKDESGQEYQKGGCGGFGKGNFSELFKSIEEYEKSLEAKQAPTVQGS | 6.7 µM | – | – | + | + | + | + | + | + | + | + | + | + | about 60 μM |
